B1: mRNA-splicing (parent)
chain: AGUUGCUGCUGGGAGCUCCAGCACAGUGAAAUGGACAGAAGGGCAGAGCAA

Variants of: B1
Experiment: exon inclusion enrichment index; higher = more inclusion; WT1 exon 5 minigene, HEK293

Row | Variant | exon inclusion enrichment index
1 | C6A U7C C9A U10C C36A | 2.48
2 | C6A U7C C9A U10C C36U | 1.34
3 | C6A U7C C9A U10C C36G | 2.75
4 | C6A U7A G8U C9U U10A | 0.00366
5 | C6A U7A C9A U10A G48A | 1.3
6 | C6A U7A C9A U10A G48U | 1.17
7 | C6A U7A C9A U10A G48C | 1.15
8 | C6A U7C C9A U10C A35G | 1.79
9 | C6A U7C C9A U10C A35C | 1.54
10 | C6A U7C C9A U10C A35U | 1.36
11 | C6A U7A C9A U10A U32C | 1.37
12 | C6A U7A C9A U10A U32A | 0.442
13 | C6A U7A C9A U10A U32G | 0.041
14 | C6A U7C C9A U10C A20G | 3.85
15 | C6A U7C C9A U10C A20C | 3.02
16 | C6A U7C C9A U10C A20U | 3.39
17 | C6A U7A G8C C9A U10C | 1.95
18 | C6A U7A G8C C9A U10A | 0.471
19 | C6A U7C C9A U10C A29G A30U | 1.72
20 | C6A U7C C9A U10C A29G A30G | 3.23
21 | C6A U7C C9A U10C A29G A30C | 2.23

Row | Variant | exon inclusion enrichment index
22 | C6A U7C C9A U10C A45C G46U | 1.54
23 | C6A U7C C9A U10C A45C G46A | 1.88
24 | C6A U7C C9A U10C A45C G46C | 2.21
25 | C6A U7A C9G U10C | 1.05
26 | C6A U7A C9G U10A | 0.286
27 | C6A U7A C9G U10G | 0.0939
28 | C6A U7C C9A U10C C16U U17G | 2.04
29 | C6A U7C C9A U10C C16U U17A | 2.9
30 | C6A U7C C9A U10C C16U U17C | 2.51
31 | C6A U7C C9A U10C A14G G15U | 2.01
32 | C6A U7C C9A U10C A14G G15A | 3.53
33 | C6A U7C C9A U10C A14G G15C | 2.29
34 | C6A U7C C9A U10C C22A A23U | 2.92
35 | C6A U7C C9A U10C C22A A23G | 3.9
36 | C6A U7C C9A U10C C22A A23C | 3.88
37 | C6A U7A C9G | 0.28
38 | C6A U7A C9U | 0.615
39 | C6A U7C C9A U10C A20G G21U | 1.35
40 | C6A U7C C9A U10C A20G G21C | 3.34
41 | C6A U7C C9A U10C A20G G21A | 3.72
42 | C6A U7C C9A U10C C24G A25G | 2.34

Row | Variant | exon inclusion enrichment index
43 | C6A U7C C9A U10C C24G A25U | 3.51
44 | C6A U7C C9A U10C C24G A25C | 4.59
45 | C6A U7C C9A U10C C16G U17A | 3.24
46 | C6A U7C C9A U10C C16G U17G | 0.621
47 | C6A U7C C9A U10C C16G U17C | 1.82
48 | C6A U7C C9A G11U | 2.1
49 | C6A U7C C9A G11A | 0.337
50 | C6A U7C C9A G11C | 2.88
51 | C6A U7C C9A U10C A31G U32C | 4.39
52 | C6A U7C C9A U10C A31G U32A | 5.2
53 | C6A U7C C9A U10C A31G U32G | 2.7
54 | C6A U7A C9A U10A G46U | 0.388
55 | C6A U7C C9A U10C A35C C36U | 0.742
56 | C6A U7C C9A U10C A35C C36A | 2.28
57 | C6A U7C C9A U10C A35C C36G | 2.56
58 | C6A U7C C9A U10C A37U G38U | 1.27
59 | C6A U7C C9A U10C A37U G38C | 2.21
60 | C6A U7C C9A U10C A37U G38A | 1.46
61 | C6A U7C C9A U10C C44G A45U | 3.12
62 | C6A U7C C9A U10C C44G A45G | 1.29
63 | C6A U7C C9A U10C C44G A45C | 4.25

Row | Variant | exon inclusion enrichment index
64 | C6A U7A G8U C9A U10A | 0.117
65 | C6A U7A G8U C9A U10C | 1.38
66 | C6A U7A G8A C9U U10A | 0.0156
67 | C6A U7C C9A U10C A40U G41A | 0.347
68 | C6A U7C C9A U10C A40U G41C | 3.18
69 | C6A U7C C9A U10C A40U G41U | 1.9
70 | C6A U7C C9A U10C A35U C36U | 0.135
71 | C6A U7C C9A U10C A35U C36A | 0.00835
72 | C6A U7C C9A U10C A35U C36G | 0.375
73 | C6A U7C C9A U10C A25G | 4.53
74 | C6A U7C C9A U10C A25U | 3.47
75 | C6A U7C C9A U10C A25C | 4.45
76 | C6A U7C C9A U10C C36A A37G | 1.73
77 | C6A U7C C9A U10C C36A A37C | 3.18
78 | C6A U7C C9A U10C C36A A37U | 2.17
79 | C6A U7C C9A U10C C44U A45C | 3.64
80 | C6A U7C C9A U10C C44U A45G | 2.34
81 | C6A U7C C9A U10C C44U A45U | 2.71
82 | C6A U7A C9A U10A U32A G33U | 0.298
83 | C6A U7A C9A U10A U32A G33C | 0.991

— the RNAGym collection of RNA variant scans (doi:10.1101/gr.219683.116)
